From patent US9994616B2, “c-Met protein agonist” (The University of Tokyo, priority 2013, dated 2018) come the findings set out here.

Series [1] can be described thus: Stability of thioether macrocyclic peptide in human serum pool (LC-MS). The class given is in vitro ADME. The note with it: for remaining at 4 h, 1 μM: Table 9; for Stability in human serum (undegraded portion/time): Table 10. On the procedure:
A DMSO solution of the thioether macrocyclic peptide to be evaluated was dissolved in a human serum pool to give a concentration of 1 μM. The human serum pool containing the thioether macrocyclic peptide thus prepared was incubated at 37° C.
After an elapse of the evaluation time, the human serum pool containing the thioether macrocyclic peptide was placed on ice and a peptide serving as an internal standard was added and mixed to give a concentration of 1 μM. The resulting mixture was added to a solid-phase extraction column (Hyper Sep SPE column, Thermo Scientific), washed with a 5% aqueous acetonitrile solution containing 0.1% TFA, and then purified by eluting with a 70% aqueous acetonitrile solution containing 0.1% TFA.
The molecular weight of the purified product was analyzed using LC-MS and the cleavage site in the serum was identified. In addition, the thioether macrocyclic peptide which had remained without being cleaved was quantitatively determined by comparing an amount relative to the internal standard at every incubation time.

In another series the target is c-Met-Fc (Homo sapiens, UniProt P08581). In words: Binding ability by surface plasmon resonance (SPR, Biacore). The note with it: for kon: read-out: ka. How it is done:
Binding ability of the thioether macrocyclic peptide was evaluated by SPR measurement using Biacore (GE Healthcare).
As a sensor chip, Sensor Chip CM5 was used and an anti-IgG antibody was immobilized on a measurement lane and a control lane by using Human Antibody Capture Kit.
On the measurement lane was immobilized c-Met-Fc, while on the control lane was immobilized Fc protein.
As a running buffer, HBS-EP+ buffer containing 0.1% DMSO was used and a dissociation constant of the thioether macrocyclic peptide was calculated at 5 different concentrations by using the single-kinetics method.
In general terms: In SPR one partner is held on a chip, and binding of the other changes the refractive index at the surface.

The target of the next series is T1, c-Met (Homo sapiens, UniProt P08581).
T1 construct: endogenous in cells; host or cells: EHMES-1 (human mesothelioma)
In words: Activity of dimeric peptide by ELISA (c-Met phosphorylation level in EHMES-1 cells). The note with it: for Activity (c-Met phosphorylation level by ELISA): Table 12, EHMES-1 cells, 10 minutes stimulation; for c-Met phosphorylation: Table 13. The class given is cell-based. How it is done:
Each dimeric peptide was added to human EHMES-1 cells and the mixture was incubated for 10 minutes to stimulate the cells.
As a control experiment, a recombinant human HGF protein was added and the mixture was incubated for 10 minutes to stimulate cells.
A phosphorylation level of c-Met was quantitatively analyzed using ELISA.

Setting [2] is: human serum pool, 37° C., 1 μM, 4 h.
[3] abbreviates: Table 11, monomer and dimeric peptides.

Like-named read-outs stand apart in the source and are kept apart here. Where a SMILES comes first, the peptide text is derived from it. Bridges are numbered along the chain shown (N, C = ends). Roman numbers before positions name the chains, in order. Where no end group is shown, it is not given here. [ ]: non-standard residue; d: D form. NMeW = CN[C@@H](Cc1c[nH]c2ccccc12)C(=O)O; NMeH = CN[C@@H](Cc1c[nH]cn1)C(=O)O; NMeR = CN[C@@H](CCCNC(=N)N)C(=O)O; NMeE = CN[C@@H](CCC(=O)O)C(=O)O; NMeQ = CN[C@@H](CCC(N)=O)C(=O)O; NMeD = CN[C@@H](CC(=O)O)C(=O)O; NMeN = CN[C@@H](CC(N)=O)C(=O)O; NMeL = CN[C@@H](CC(C)C)C(=O)O; NMeV = CN[C@H](C(=O)O)C(C)C; NMeC = CN[C@@H](CS)C(=O)O; βAla = NCCC(=O)O

Chain of c-Met-Fc (P08581 with tags, fused parts or gaps limits assumed): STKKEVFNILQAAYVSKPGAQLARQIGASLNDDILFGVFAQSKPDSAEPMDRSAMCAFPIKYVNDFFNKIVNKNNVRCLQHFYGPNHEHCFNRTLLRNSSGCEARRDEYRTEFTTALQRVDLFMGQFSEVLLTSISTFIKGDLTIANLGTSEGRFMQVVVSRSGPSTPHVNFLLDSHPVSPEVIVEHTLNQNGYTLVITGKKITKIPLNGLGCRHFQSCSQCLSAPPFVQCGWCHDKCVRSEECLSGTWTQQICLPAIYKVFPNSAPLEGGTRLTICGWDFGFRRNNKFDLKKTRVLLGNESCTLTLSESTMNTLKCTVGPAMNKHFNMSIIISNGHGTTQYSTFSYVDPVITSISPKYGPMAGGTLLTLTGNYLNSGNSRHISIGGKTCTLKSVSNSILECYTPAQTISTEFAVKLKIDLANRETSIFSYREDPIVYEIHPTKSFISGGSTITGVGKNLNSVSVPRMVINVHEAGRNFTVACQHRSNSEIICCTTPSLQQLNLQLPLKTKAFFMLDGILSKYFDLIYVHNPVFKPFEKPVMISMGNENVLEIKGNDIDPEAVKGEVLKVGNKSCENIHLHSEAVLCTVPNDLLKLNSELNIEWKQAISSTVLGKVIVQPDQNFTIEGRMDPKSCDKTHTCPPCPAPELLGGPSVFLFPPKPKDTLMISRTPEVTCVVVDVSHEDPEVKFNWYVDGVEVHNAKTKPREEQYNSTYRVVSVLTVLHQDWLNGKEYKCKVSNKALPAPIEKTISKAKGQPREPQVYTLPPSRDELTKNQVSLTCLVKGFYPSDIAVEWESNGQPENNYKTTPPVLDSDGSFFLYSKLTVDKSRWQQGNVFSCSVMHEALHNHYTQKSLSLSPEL
Chain of c-Met-Fc (P08581 25-307 limits assumed): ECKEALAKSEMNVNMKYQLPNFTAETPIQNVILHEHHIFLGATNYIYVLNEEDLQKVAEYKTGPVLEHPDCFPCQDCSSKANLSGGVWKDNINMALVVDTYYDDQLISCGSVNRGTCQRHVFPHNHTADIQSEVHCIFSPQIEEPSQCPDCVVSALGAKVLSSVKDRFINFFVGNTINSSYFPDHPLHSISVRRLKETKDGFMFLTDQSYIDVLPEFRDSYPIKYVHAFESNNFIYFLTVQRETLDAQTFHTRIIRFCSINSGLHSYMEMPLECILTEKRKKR
T1 sequence (P08581 25-1390): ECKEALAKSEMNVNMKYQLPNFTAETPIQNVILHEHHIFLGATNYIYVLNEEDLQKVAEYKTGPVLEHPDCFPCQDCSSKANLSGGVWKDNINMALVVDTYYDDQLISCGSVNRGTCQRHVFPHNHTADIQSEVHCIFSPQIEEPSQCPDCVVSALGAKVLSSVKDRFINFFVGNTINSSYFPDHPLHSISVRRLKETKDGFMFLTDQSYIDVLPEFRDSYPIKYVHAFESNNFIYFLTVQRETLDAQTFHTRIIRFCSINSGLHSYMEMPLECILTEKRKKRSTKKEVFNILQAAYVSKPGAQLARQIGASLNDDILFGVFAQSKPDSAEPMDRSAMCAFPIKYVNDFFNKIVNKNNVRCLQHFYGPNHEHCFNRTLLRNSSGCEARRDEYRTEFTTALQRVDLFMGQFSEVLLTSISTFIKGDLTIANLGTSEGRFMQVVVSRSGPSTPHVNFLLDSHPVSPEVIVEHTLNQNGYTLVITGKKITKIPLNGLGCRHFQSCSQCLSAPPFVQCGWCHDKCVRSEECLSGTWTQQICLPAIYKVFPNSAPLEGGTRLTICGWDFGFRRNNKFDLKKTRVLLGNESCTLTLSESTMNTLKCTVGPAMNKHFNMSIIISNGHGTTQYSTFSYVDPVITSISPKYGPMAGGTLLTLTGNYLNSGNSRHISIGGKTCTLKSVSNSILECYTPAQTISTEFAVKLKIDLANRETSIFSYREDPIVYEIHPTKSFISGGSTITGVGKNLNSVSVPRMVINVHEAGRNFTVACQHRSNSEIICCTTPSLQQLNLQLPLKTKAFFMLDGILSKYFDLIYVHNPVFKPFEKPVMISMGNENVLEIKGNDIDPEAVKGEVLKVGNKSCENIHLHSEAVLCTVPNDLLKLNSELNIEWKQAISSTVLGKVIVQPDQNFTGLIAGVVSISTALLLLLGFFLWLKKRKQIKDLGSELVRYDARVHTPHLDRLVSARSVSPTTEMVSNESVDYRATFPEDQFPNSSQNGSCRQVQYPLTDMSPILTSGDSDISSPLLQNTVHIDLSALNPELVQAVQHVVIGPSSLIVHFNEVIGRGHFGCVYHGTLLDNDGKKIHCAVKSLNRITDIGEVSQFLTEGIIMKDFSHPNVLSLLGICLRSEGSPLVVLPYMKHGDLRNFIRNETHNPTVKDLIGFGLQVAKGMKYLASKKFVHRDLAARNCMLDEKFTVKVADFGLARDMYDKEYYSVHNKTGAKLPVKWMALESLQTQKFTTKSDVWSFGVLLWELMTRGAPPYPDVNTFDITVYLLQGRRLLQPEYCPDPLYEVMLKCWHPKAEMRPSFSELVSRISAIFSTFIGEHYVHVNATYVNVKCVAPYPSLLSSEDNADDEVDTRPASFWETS

A word on the share remaining: it is the share of the starting amount still present when the sample was taken. Lower therefore signals a greater loss. By Kd is commonly meant the free concentration of one partner at which half of the binding sites on the other are occupied at equilibrium, for simple one-to-one binding. Regarding `CC(C)C[C@@H]1NC(=O)[C@H](CC(N)=O)NC(=O)[C@H](Cc2c[nH]c3ccccc23)NC(=O)[C@H](C(C)C)NC(=O)[C@H](CCC(=O)O)NC(=O)[C@H](Cc2c[nH]cn2)NC(=O)[C@H]([C@@H](C)O)NC(=O)[C@H](CCCNC(=N)N)NC(=O)[C@H](CCCNC(=N)N)N(C)C(=O)[C@H](CC(N)=O)NC(=O)[C@H](Cc2ccccc2)NC(=O)[C@H](CCC(N)=O)NC(=O)[C@H](CCCNC(=N)N)NC(=O)[C@@H](Cc2ccc(O)cc2)NC(=O)CSC[C@@H](C(=O)NCC(N)=O)N(C)C(=O)[C@H](CC(=O)O)NC1=O` [Peptide D4-3NMe] ({CH2CO}-[dY]RQFN[NMeR]RTHEVWNLD[NMeC]G-NH2; thioether N-16), the fraction remaining at 4 h, 1 μM in series [1] (setting [2]) was 63%. In series [1] (4 h, 37° C.), the “Stability in human serum (undegraded portion/time)” value was determined as 67%/4 h. For the same compound, in series [1] (human serum), the “Stability in serum (in words)” value is “considerably excellent”. On c-Met-Fc (Table 9, c-Met-Fc), the Kd was determined as 0.0052 µM and the kon was 390000 M⁻¹ s⁻¹.
Turning to `CC(C)C[C@@H]1NC(=O)[C@H](CC(N)=O)NC(=O)[C@H](Cc2c[nH]c3ccccc23)NC(=O)[C@H](C(C)C)NC(=O)[C@H](CCC(=O)O)NC(=O)[C@H](Cc2c[nH]cn2)NC(=O)[C@H]([C@@H](C)O)NC(=O)[C@H](CCCNC(=N)N)NC(=O)[C@H](CCCNC(=N)N)NC(=O)[C@H](CC(N)=O)NC(=O)[C@H](Cc2ccccc2)NC(=O)[C@H](CCC(N)=O)NC(=O)[C@H](CCCNC(=N)N)NC(=O)[C@@H](Cc2ccc(O)cc2)NC(=O)CSC[C@@H](C(=O)NCC(N)=O)NC(=O)[C@H](CC(=O)O)NC1=O` [Peptide D4-3] ({CH2CO}-[dY]RQFNRRTHEVWNLDCG-NH2; thioether N-16; N-terminus and C-terminus assumed), the share remaining at 1 h, 1 μM in series [1] (Table 8, human serum pool, 37° C., 1 μM, 1 h) is 3.7%. In series [1] (setting [2]), the fraction remaining at 4 h, 1 μM was less than 3.7%. Besides, the “Stability in human serum (undegraded portion/time)” value in series [1] (2 h, 37° C.) is 6%/2 h. Also, the kon at c-Met-Fc (Table 8, c-Met-Fc) amounted to 1.3e+06 M⁻¹ s⁻¹; on c-Met-Fc (Table 10, c-Met-Fc), 2.4e+06 M⁻¹ s⁻¹.
Regarding `C[C@@H]1NC(=O)[C@H](Cc2ccc(O)cc2)NC(=O)[C@H](Cc2ccc(O)cc2)NC(=O)[C@H](Cc2c[nH]c3ccccc23)NC(=O)[C@@H](Cc2ccc(O)cc2)NC(=O)CSC[C@@H](C(=O)NCC(N)=O)NC(=O)[C@@H]2CCCN2C(=O)[C@H](Cc2ccccc2)NC(=O)[C@H](C)NC(=O)[C@H](CCCCN)NC(=O)[C@H](Cc2ccc(O)cc2)NC(=O)[C@H]([C@@H](C)O)NC(=O)[C@H](CCC(N)=O)NC(=O)[C@H](CC(=O)O)NC(=O)[C@H](Cc2c[nH]c3ccccc23)NC1=O` [Peptide D5-4] ({CH2CO}-[dY]WYYAWDQTYKAFPCG-NH2; thioether N-15), the “Stability in human serum (undegraded portion/time)” value in series [1] (2 h, 37° C.) came out at 97%/2 h. Further, at c-Met-Fc (Table 10, c-Met-Fc), binding was put at a Kd of 0.0046 µM and the kon came to 4.5e+06 M⁻¹ s⁻¹.
On to `CC(C)C[C@@H]1NC(=O)[C@H](CC(N)=O)NC(=O)[C@H](Cc2c[nH]c3ccccc23)NC(=O)[C@H](C(C)C)N(C)C(=O)[C@H](CCC(=O)O)NC(=O)[C@H](Cc2c[nH]cn2)NC(=O)[C@H]([C@@H](C)O)NC(=O)[C@H](CCCNC(=N)N)NC(=O)[C@H](CCCNC(=N)N)NC(=O)[C@H](CC(N)=O)NC(=O)[C@H](Cc2ccccc2)NC(=O)[C@H](CCC(N)=O)NC(=O)[C@H](CCCNC(=N)N)NC(=O)[C@@H](Cc2ccc(O)cc2)NC(=O)CSC[C@@H](C(=O)NCC(N)=O)NC(=O)[C@H](CC(=O)O)NC1=O` [Peptide N11] ({CH2CO}-[dY]RQFNRRTHE[NMeV]WNLDCG-NH2; thioether N-16; C-terminus assumed), for which, on c-Met-Fc (Table 8, c-Met-Fc), the kon worked out at 15000 M⁻¹ s⁻¹.
Same read-out and setting: to `CC(C)C[C@@H]1NC(=O)[C@H](CC(N)=O)NC(=O)[C@H](Cc2c[nH]c3ccccc23)N(C)C(=O)[C@H](C(C)C)NC(=O)[C@H](CCC(=O)O)NC(=O)[C@H](Cc2c[nH]cn2)NC(=O)[C@H]([C@@H](C)O)NC(=O)[C@H](CCCNC(=N)N)NC(=O)[C@H](CCCNC(=N)N)NC(=O)[C@H](CC(N)=O)NC(=O)[C@H](Cc2ccccc2)NC(=O)[C@H](CCC(N)=O)NC(=O)[C@H](CCCNC(=N)N)NC(=O)[C@@H](Cc2ccc(O)cc2)NC(=O)CSC[C@@H](C(=O)NCC(N)=O)NC(=O)[C@H](CC(=O)O)NC1=O` [Peptide N12] ({CH2CO}-[dY]RQFNRRTHEV[NMeW]NLDCG-NH2; thioether N-16; C-terminus assumed) belongs 55000 M⁻¹ s⁻¹; to `CC(C)C[C@@H]1NC(=O)[C@H](CC(N)=O)NC(=O)[C@H](Cc2c[nH]c3ccccc23)NC(=O)[C@H](C(C)C)NC(=O)[C@H](CCC(=O)O)NC(=O)[C@H](Cc2c[nH]cn2)NC(=O)[C@H]([C@@H](C)O)NC(=O)[C@H](CCCNC(=N)N)NC(=O)[C@H](CCCNC(=N)N)NC(=O)[C@H](CC(N)=O)NC(=O)[C@H](Cc2ccccc2)NC(=O)[C@H](CCC(N)=O)NC(=O)[C@H](CCCNC(=N)N)NC(=O)[C@@H](Cc2ccc(O)cc2)NC(=O)CSC[C@@H](C(=O)NCC(N)=O)NC(=O)[C@H](CC(=O)O)N(C)C1=O` [Peptide N15] ({CH2CO}-[dY]RQFNRRTHEVWNL[NMeD]CG-NH2; thioether N-16; C-terminus assumed), 300000 M⁻¹ s⁻¹.
Regarding “D4-3 Bis-MAL-PEG3: dimeric peptide: two D4-3 macrocycles linked through C-terminal Cys by Bis-MAL-PEG3 linker ({CH2CO}-[dY]RQFNRRTHEVWNLDCGC; thioether N-16; not fully specified (residue 18); also: dimer: two copies joined by Bis-MAL-PEG3, linker at 18 via Bis-MAL-PEG3, other end not in the chain)”, in the series with c-Met-Fc (setting [3]), the ka is 1.1 10^6 M^−1s^−1 and the kd was 0.070 10^−2 s^−1. In the series with c-Met, the “Activity (c-Met phosphorylation level by ELISA)” value was “Low” and the c-Met phosphorylation result was “Promote”.
In the case of “D5-4 Bis-MAL-PEG3: dimeric peptide: two D5-4 macrocycles linked through C-terminal Cys by Bis-MAL-PEG3 linker (peptide 1 {CH2CO}-[dY]WYYAWDQTYKAFPCG; peptide 2 {CH2CO}-[dY]WYYAWDQTYKAFPCG; thioether I:N-I:15, II:N-II:15; not fully specified (C-terminus); also: dimer: two chains joined by Bis-MAL-PEG3 through an added C-terminal Cys not in the letters)”, in the series with c-Met-Fc (setting [3]), the ka is reported as 0.12 10^6 M^−1s^−1 and the kd was 0.054 10^−2 s^−1. Moreover, in the series with c-Met, the “Activity (c-Met phosphorylation level by ELISA)” value is given as “High” and the c-Met phosphorylation entry is listed as “Promote”.
The corresponding values for “L5-2 Bis-MAL-PEG11: dimeric peptide: two L5-2 macrocycles linked through C-terminal Cys by Bis-MAL-PEG11 linker ({CH2CO}-YISWNEFNSPNWRFITCG[βAla]C-NH2; thioether N-17; not fully specified (residue 20); also: dimer: two copies joined by Bis-MAL-PEG11, linker at 20 via Bis-MAL-PEG11, other end not in the chain)” are 0.098 10^6 M^−1s^−1, 0.031 10^−2 s^−1, “Low” and “Promote”.
In the case of “N3: N-methylated peptide of D4-3 ({CH2CO}-[dY]R[NMeQ]FNRRTHEVWNLDC-NH2; thioether N-16; also: bridge 1-16 listed as disulfide) [Peptide N3]”, in the series with c-Met-Fc (Table 8, c-Met-Fc), the dissociation constant Kd was 0.12 µM, the ka was 0.27 10^5 M^−1s^−1 and the kd is on record as 0.31 10^−2 s^−1.
The corresponding values for “N5: N-methylated peptide of D4-3 ({CH2CO}-[dY]RQF[NMeN]RRTHEVWNLDC-NH2; thioether N-16; also: bridge 1-16 listed as disulfide) [Peptide N5]” are 0.2 µM, 0.19 10^5 M^−1s^−1 and 0.39 10^−2 s^−1.
As to “N9: N-methylated peptide of D4-3 ({CH2CO}-[dY]RQFNRRT[NMeH]EVWNLDC-NH2; thioether N-16; also: bridge 1-16 listed as disulfide) [Peptide N9]”, the KD entry in the series with c-Met-Fc (Table 8, c-Met-Fc) is “Not binding”.
As for “N10: N-methylated peptide of D4-3 ({CH2CO}-[dY]RQFNRRTH[NMeE]VWNLDC-NH2; thioether N-16; also: bridge 1-16 listed as disulfide) [Peptide N10]”, in the series with c-Met-Fc (Table 8, c-Met-Fc), the equilibrium dissociation constant (Kd) came out at 0.3 µM, the ka is given as 0.25 10^5 M^−1s^−1 and the kd is given as 0.75 10^−2 s^−1.
For the compound “N14: N-methylated peptide of D4-3 ({CH2CO}-[dY]RQFNRRTHEVWN[NMeL]DC-NH2; thioether N-16; also: bridge 1-16 listed as disulfide) [Peptide N14]”, in the series with c-Met-Fc (Table 8, c-Met-Fc), binding was put at a Kd of 0.29 µM, the ka is 0.21 10^5 M^−1s^−1 and the kd is reported as 0.59 10^−2 s^−1.
